Experimental data reported in IntAct's records for PubMed 20176808.

B1: Inactive serine/threonine-protein kinase TEX14 (Mus musculus), Q7M6U3 (parent)
chain: MSRGAPFPVPCPVLLGTFTDDSLEAQLHEYAKQGNCVKLKKILKKGVCVDAVNTQGQSALFVAALLGHVKLVDVLVDYGSDPNHRCFDGSTPVHAAAFSGNQWILSKLLTAGGDLRLHDEKGRNPQAWALTAGKDRSTQMVEFMQRCTSHMKAIIQGFSYDLLKKIDSPQRLIGSPPWFGSLIQGSPNSSPNRQLKPGIISAQNIYSFGFGKFYLTSGMQLTYPGSLPVIGEKEVVQADDEPTFSFFSGPYMVMTNLVWNRSRVTVKELNLPTRPHCSRLRLADLLIAEQEHSSNLRHPNLLQLMAVCLSRDLEKIRLVYERITVGTLFSVLHERRSQFPVLHMEVIVHLLLQVADALIYLHSRGFIHRSLSSYAVHIVSAGEARLTNLEYLTESQDSGAHRNVTRMPLPTQLYNWAAPEVVLQKAATVKSDIYSFSVIIQEILTDSIPWNGLDGSLVKETIALGNYLEADVRLPEPYYDIVKSGIHAKQKNRTMNLQDIRYILKNDLKEFIGAQKTQPTESPRGQSYEPHPDVNICLGLTSEYQKDPPDLDIKELKEMGSQPHSPTDHSFLTVKPTLAPQTLDSSLSAQKPDNANVPSPPAACLAEEVRSPTASQDSLCSFEINEIYSGCLTLGTDKEEECLGTAASPEGDRPNQGDELPSLEEELDKMERELHCFCEEDKSISEVDTDLLFEDDDWQSDSLGSLNLPEPTREAKGKTSSWSKTDEYVSKCVLNLKISQVMMQQSAEWLRKLEQEVEELEWAQKELDSQCSSLRDASLKFANAKFQPAVGPPSLAYLPPVMQLPGLKQPENGGTWLTLARSPGNEREFQEGHFSKKPEKLSACGWKPFTQVSEESRGDCSELNNQLPTLRGPGKQSTGEQLPSTQEARESLEKNTNQNSRSMASVSSEIYATKSRNNEDNGEAHLKWRLAVKEMAEKAVSGQLLLPPWNPQSSAPFESKVENESTPLPRPPIRGPESTEWQHILEYQRENDEPKGNTKFGKMDNSDCDKNKHSRWTGLQRFTGIRYPFFRNHEQPEQNEASQASCDTSVGTEKFYSTSSPIGDDFERFQDSFAQRQGYVEENFQIREIFEKNAEILTKPQFQAIQCAEDKQDETLGETPKELKEKNTSLTDIQDLSSITYDQDGYFKETSYKTPKLKHAPTSASTPLSPESISSAASHYEDCLENTTFHVKRGSTFCWNGQEAMRTLSAKFTTVRERAKSLESLLASSKSLPAKLTDSKRLCMLSETGSSNVSAAFVTSTHATKRKSLPRELAEATSQQHLDELPPPAQELLDEIEQLKQQQVSSLASHENTARDLSVTNKDKKHLEEQETNSSKDSSFLSSREIQDLEDTERAHSSLDEDLERFLQSPEENTALLDPTKGSTREKKNKDQDVVEQKRKKKESIKPERRESDSSLGTLEEDELKPCFWKRLGWSEPSRIIVLDQSDLSD
partner: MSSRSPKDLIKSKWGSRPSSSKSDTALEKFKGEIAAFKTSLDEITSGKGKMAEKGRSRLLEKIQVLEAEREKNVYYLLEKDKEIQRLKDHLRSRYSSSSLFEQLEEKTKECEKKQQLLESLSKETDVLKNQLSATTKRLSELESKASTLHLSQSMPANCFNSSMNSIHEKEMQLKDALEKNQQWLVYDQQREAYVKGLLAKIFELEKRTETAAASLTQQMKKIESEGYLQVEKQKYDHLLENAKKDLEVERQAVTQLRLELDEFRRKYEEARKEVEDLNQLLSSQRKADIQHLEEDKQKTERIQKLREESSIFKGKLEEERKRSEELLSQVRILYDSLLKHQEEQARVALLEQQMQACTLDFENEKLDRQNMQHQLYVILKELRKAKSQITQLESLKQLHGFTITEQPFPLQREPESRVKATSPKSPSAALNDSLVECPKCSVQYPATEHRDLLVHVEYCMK

Variants of: B1
Conditions: with cep55_mouse Cep55, Q8BT07

| effect of a mutation on the interaction | Variant |
| --- | --- |
| disrupting interaction | P792A |
| disrupting interaction | Y797A |
| decreasing interaction | P793A |
